# Source: patent US20240026009A1 (Memorial Sloan Kettering, published 2024)
# Experiments:
# [1] = target: T1, human Galectin-3 (LGALS3) (human, UniProt P17931 2-250, limits assumed); assay: SPR, increasing concentrations of the mAb
# T1 construct: also called human Gal-3; Gal-3
# Excerpt: Clones 46H02 and 20F08 were then subjected to determination of binding parameters using surface plasmon resonance (SPR) in the presence of increasing concentrations of these antibodies.
# mouse Gal-3 [2] = target: T2, mouse Gal-3 (mouse, UniProt P16110 2-264, limits assumed); assay: ELISA on mouse Gal-3 (moGal3)
# T2 construct: also called mouse Galectin-3; Lgal3
# T2 sequence (P16110 2-264 limits assumed): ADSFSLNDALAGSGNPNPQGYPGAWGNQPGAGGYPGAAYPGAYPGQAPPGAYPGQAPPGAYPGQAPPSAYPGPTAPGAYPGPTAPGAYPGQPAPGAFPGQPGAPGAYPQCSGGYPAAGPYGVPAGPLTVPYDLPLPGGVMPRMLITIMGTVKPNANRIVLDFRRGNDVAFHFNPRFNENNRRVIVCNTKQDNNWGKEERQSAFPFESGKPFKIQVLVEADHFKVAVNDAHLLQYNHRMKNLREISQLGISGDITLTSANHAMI
# mouse Gal-3 [3] = target: T2, mouse Gal-3; assay: ELISA on mouse Gal-3 (moGal3), one OD450 value per clone
# [4] = target: T1, human Galectin-3 (LGALS3); assay: ELISA on human Gal-3 (huGal3), one OD450 value per clone
# [5] = target: T3, PE labeled Gal-3 (Gal-3-PE) (human, UniProt P17931 1-250, limits assumed, labelled with PE (phycoerythrin; Innova Biosciences kit), sites not stated); assay: blockade of Gal-3-PE binding to OVCAR3 cells by purified antibody, number of Gal-3-PE-bound cells (Mirrorball)
# T3 construct: Bought human Gal-3 labelled with PE; also called huGal-3 (Abcam ab89487) labelled with PE
# T3 sequence (P17931 whole entry): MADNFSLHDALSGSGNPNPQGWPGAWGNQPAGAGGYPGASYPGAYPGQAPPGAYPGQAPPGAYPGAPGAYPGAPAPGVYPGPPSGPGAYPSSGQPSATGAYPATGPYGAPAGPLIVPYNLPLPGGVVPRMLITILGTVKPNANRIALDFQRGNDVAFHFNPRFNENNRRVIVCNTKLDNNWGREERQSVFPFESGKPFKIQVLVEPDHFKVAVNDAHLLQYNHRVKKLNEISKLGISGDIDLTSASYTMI
# Excerpt: Reactions to measure binding of Gal-3-PE to OVCAR3 cells were set up in the presence of PBS (negative control), or increasing concentrations of the indicated antibody. Purified antibodies were used in the binding reactions. Shown are the effects of antibody concentration on the extent of inhibition of Gal-3-PE binding to OVCAR3 by antibody clones 20F08 and 12H07 (FIG. 6A), which have the identical sequences, 46H02 (FIG. 6B), clones 38E05 and 39F02 (FIG. 6C), which also have identical sequences, and 14D11.2D3 (FIG. 6D).
# An assay for Gal-3-PE binding to cancer cells was developed as a secondary screen. huGal-3 (Abcam ab89487) was labelled with PE (Innova Biosciences) according to manufacturer's instructions. The assay for Gal-3-PE binding to OVCAR3 cells was performed as follows: cultured […] cells were trypsinized and washed with culture medium. 500, 1000 or 2000 cells were incubated with various concentrations of Gal-3-PE. The indicated number of OVCAR3 cells were pipetted into a 96-well plate with the indicated amount of Gal-3-PE and incubated on the bench in the dark for 2 hrs prior to being read on a Mirrorball® device (TTP Labtech). Binding of Gal-3-PE to OVCAR3 cells was detected using the Mirrorball® flow cytometer.
# Next, the clones were subjected to determination of dose-response of blockade of Gal-3-PE binding to OVCAR3 cells. […]
# T1 sequence (P17931 2-250 limits assumed): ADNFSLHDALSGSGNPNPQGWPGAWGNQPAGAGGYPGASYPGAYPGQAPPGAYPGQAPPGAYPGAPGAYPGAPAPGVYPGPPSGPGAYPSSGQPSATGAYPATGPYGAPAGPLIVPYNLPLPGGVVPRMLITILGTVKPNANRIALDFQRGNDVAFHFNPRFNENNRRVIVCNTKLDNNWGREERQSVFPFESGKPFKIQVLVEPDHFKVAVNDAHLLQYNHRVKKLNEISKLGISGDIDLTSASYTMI
Kd [1] [nM],binding result (mouse Gal-3 [2]),OD450 (mouse Gal-3 [3]),OD450 [4],IC50 (read off the curve) [5] [µg/mL],Binder
–,no binding,0.049,1.4,–,"mAb 12H07 (antibody, V domains shown, Hybridoma antibody from AlivaMab Mouse; Human HC (chimeric IgH with mouse CH2 and CH3) and murine LC; also called 12H7; clone 12H07) VH: EVQLVESGGGLVKPGGSLRLSCAASGFIFSNYNINWVRQAPGKGLEWVSCVSRSNYTYYTDSVKGRFTISRDNAKKSLYLQMNSLRAEDTAVYYCARDCGTYGVFDYWGQGTLVTVSS VL: ETTVTQSPASLSMAIGEKVTIRCITSTDIDDDMNWYQQKPGEPPKLLISEGNILRPGVPSRFSSSGYGTDFVFAIENMLSEDVADYYCLQSDNLPYTFGGGTKLELK"
10,–,1.38,2.56,~1,"mAb 46H02 (antibody, V domains shown, Hybridoma antibody from AlivaMab Mouse; 46H02 has a fully human F(ab)2 (human light chain); also called clone 46H02) VH: QVQLVQSGAEVKKPGASVKVSCKASGYTFTGYSMHWVRQAPGQGLEWMGWINPHSGGTNSAQKFQGRVTMTRDTSIGTAYMELNRLRSDDTAVYYCVRDNPITGFDYWGQGTLVTVSS VL: not shown"
–,–,0.726,0.502,–,"mAb 39F02 (antibody, V domains shown, Hybridoma antibody from AlivaMab Mouse; Human HC (chimeric IgH with mouse CH2 and CH3) and murine LC; also called clone 39F02) VH: EVQLLESGGGLVQPGGSLRLSCAASGFTLSNYAMSWVRQAPGKGLEWVSAISGSGGGTYNADSVKGRFTISRDNSKNTLYLQMNSLRAEDTAVYYCAKEAWISYFDYWGQGTLVTVSS VL: DIVMSQSPSSLAVSVGEKVTLSCKSSQSLLYGDDQKNYLAWYQQKPGQSPKLLLYWASTWESGVPDRFTGSGSGTDFTLTISSVKAADLAVYYCQQYYSYPWTFGGGTKLEIK"

# Second part, the binder before the results:
Binder,Kd [1] [nM],binding result (mouse Gal-3 [2]),OD450 (mouse Gal-3 [3]),OD450 [4],IC50 (read off the curve) [5] [µg/mL]
"mAb 20F08 (antibody, V domains shown, Hybridoma antibody from AlivaMab Mouse; Human HC (chimeric IgH with mouse CH2 and CH3) and murine LC; also called clone 20F08) VH: EVQLVESGGGLVKPGGSLRLSCAASGFIFSNYNINWVRQAPGKGLEWVSCVSRSNYTYYTDSVKGRFTISRDNAKKSLYLQMNSLRAEDTAVYYCARDCGTYGVFDYWGQGTLVTVSS VL: ETTVTQSPASLSMAIGEKVTIRCITSTDIDDDMNWYQQKPGEPPKLLISEGNILRPGVPSRFSSSGYGTDFVFAIENMLSEDVADYYCLQSDNLPYTFGGGTKLELK",44,no binding,0.047,0.523,–
"mAb 38E05 (antibody, V domains shown, Hybridoma antibody from AlivaMab Mouse; Human HC (chimeric IgH with mouse CH2 and CH3) and murine LC; also called clone 38E05) VH: EVQLLESGGGLVQPGGSLRLSCAASGFTLSNYAMSWVRQAPGKGLEWVSAISGSGGGTYNADSVKGRFTISRDNSKNTLYLQMNSLRAEDTAVYYCAKEAWISYFDYWGQGTLVTVSS VL: DIVMSQSPSSLAVSVGEKVTLSCKSSQSLLYGDDQKNYLAWYQQKPGQSPKLLLYWASTWESGVPDRFTGSGSGTDFTLTISSVKAADLAVYYCQQYYSYPWTFGGGTKLEIK",–,–,1.12,0.86,–
